Experimental data taken from patent US20190153066A1 (IMMATICS BIOTECHNOLOGIES, published 2019).
No end group written: not given here.

Molecular target: T1, HLA-A*02:01 (peptide-receptive MHC class I molecule after UV-ligand exchange) (human)
T1 construct: monomers captured on streptavidin-coated plates; also called peptide-receptive MHC molecules; MHC monomers
Assay: UV-ligand exchange, anti-b2m ELISA; peptide exchange yield grade (>10% = +; >20% = ++; >50 = +++; >75% = ++++)
Text: Candidate peptides for T cell based therapies according to the present invention were further tested for their MHC binding capacity (affinity). The individual peptide-MHC complexes were produced by UV-ligand exchange, where a UV-sensitive peptide is cleaved upon UV-irradiation, and exchanged with the peptide of interest as analyzed. Only peptide candidates that can effectively bind and stabilize the peptide-receptive MHC molecules prevent dissociation of the MHC complexes. To determine the yield of the exchange reaction, an ELISA was performed based on the detection of the light chain (β2m) of stabilized MHC complexes. The assay was performed as generally described in Rodenko et al. (Rodenko et al., 2006).
96 well MAXISorp plates (NUNC) were coated over night with 2 ug/ml streptavidin in PBS at room temperature, washed 4× and blocked for1 h at 37° C. in 2% BSA containing blocking buffer. Refolded HLA-A*02:01/MLA-001 monomers served as standards, covering the range of 15-500 ng/ml. Peptide-MHC monomers of the UV-exchange reaction were diluted 100-fold in blocking buffer. Samples were incubated for 1 h at 37° C., washed four times, incubated with 2 ug/ml HRP conjugated anti-β2 m for 1 h at 37° C., washed again and detected with TMB solution that is stopped with […]. Absorption was measured at 450 nm. Candidate peptides that show a high exchange yield (preferably higher than 50%, most preferred higher than 75%) are generally preferred for a generation and production of antibodies or fragments thereof, and/or T cell receptors or fragments thereof, as they show sufficient avidity to the MHC molecules and prevent dissociation of the MHC complexes.

| peptide exchange yield | Binder |
| --- | --- |
| > 75% | SLLSELLGV [peptide SLLSELLGV (SEQ ID NO: 23)] |
| > 75% | VLQDELPQL [peptide VLQDELPQL (SEQ ID NO: 20)] |
| > 75% | FLLEAQNYL [peptide FLLEAQNYL (SEQ ID NO: 4)] |
| > 75% | RLAKLTAAV [peptide RLAKLTAAV (SEQ ID NO: 9)] |
| > 75% | LLLSDPDKVTI [peptide LLLSDPDKVTI (SEQ ID NO: 7)] |
| 20 to 50% | SAFGFPVIL [peptide SAFGFPVIL (SEQ ID NO: 22)] |
| > 75% | SIIDFTVTM [peptide SIIDFTVTM (SEQ ID NO: 11)] |
| > 75% | LLLPLLPPLSPS (also: trifluoroacetate salt) [peptide LLLPLLPPLSPS (SEQ ID NO: 6)] |
| 10 to 20% | TAQTLVRIL [peptide TAQTLVRIL (SEQ ID NO: 26)] |
| > 75% | VLYDNTQLQL [peptide VLYDNTQLQL (SEQ ID NO: 17)] |
| > 75% | AVMTDLPVI [peptide AVMTDLPVI (SEQ ID NO: 16)] |
| 10 to 20% | LSASLVRIL [peptide LSASLVRIL (SEQ ID NO: 8)] |
| 50 to 75% | SLSPDLSQV [peptide SLSPDLSQV (SEQ ID NO: 18)] |
| 50 to 75% | YAAEIASAL (also: trifluoroacetate salt) [peptide YAAEIASAL (SEQ ID NO: 1)] |
| 20 to 50% | TAYPQVVVV [peptide TAYPQVVVV (SEQ ID NO: 19)] |
| > 75% | SVIDSLPEI [peptide SVIDSLPEI (SEQ ID NO: 15)] |

| peptide exchange yield | Binder |
| --- | --- |
| 50 to 75% | AAYPEIVAV [peptide AAYPEIVAV (SEQ ID NO: 2)] |
| > 75% | IAIPFLIKL [peptide IAIPFLIKL (SEQ ID NO: 31)] |
| > 75% | GLIDEVMVLL [peptide GLIDEVMVLL (SEQ ID NO: 5)] |
| 50 to 75% | FASGLIHRV [peptide FASGLIHRV (SEQ ID NO: 30)] |
| 10 to 20% | TILPGNLQSW [peptide TILPGNLQSW (SEQ ID NO: 12)] |
| 50 to 75% | ALAEQVQKA [peptide ALAEQVQKA (SEQ ID NO: 27)] |
| 20 to 50% | SAFPFPVTVSL [peptide SAFPFPVTVSL (SEQ ID NO: 10)] |
| > 75% | YVISQVFEI [peptide YVISQVFEI (SEQ ID NO: 32)] |
| > 75% | VLPRAFTYV [peptide VLPRAFTYV (SEQ ID NO: 13)] |
| > 75% | YGIEFVVGV [peptide YGIEFVVGV (SEQ ID NO: 14)] |
| 10 to 20% | YASGSSASL [peptide YASGSSASL (SEQ ID NO: 28)] |
| > 75% | FASEVSNVL [peptide FASEVSNVL (SEQ ID NO: 29)] |
| 50 to 75% | IAFPTSISV [peptide IAFPTSISV (SEQ ID NO: 21)] |
| 10 to 20% | ISAPLVKTL [peptide ISAPLVKTL (SEQ ID NO: 24)] |
| > 75% | NLSETASTMAL [peptide NLSETASTMAL (SEQ ID NO: 25)] |
| 50 to 75% | EMDSTVITV [peptide EMDSTVITV (SEQ ID NO: 3)] |
